{"source": "paper PMC3773880", "about": "(Biochimica et biophysica acta, 2013)", "key": {"[1]": {"molecular_target": "T1, low molecular weight gingipain R (RgpB) (Porphyromonas gingivalis, UniProt P95493 230-664)", "test": "enzyme inhibition kinetics"}, "[2]": {"molecular_target": "T1, low molecular weight gingipain R (RgpB)", "test": "cell-based or functional assay"}, "gingipain K (Kgp)": {"molecular_target": "gingipain K (Kgp) (Porphyromonas gingivalis)", "test": "enzyme inhibition kinetics"}, "[3]": {"molecular_target": "T1, low molecular weight gingipain R (RgpB)", "test": "enzyme inhibition kinetics", "remark": "listed apart in the source"}, "[4]": {"molecular_target": "membrane-type RgpB (mt-RgpB), glycosylated (Porphyromonas gingivalis, UniProt P95493 230-736, heavily glycosylated)", "test": "cell-based or functional assay"}, "[5]": {"molecular_target": "T1, low molecular weight gingipain R (RgpB)", "test": "cell-based or functional assay", "remark": "listed apart in the source"}, "[6]": {"molecular_target": "T1, low molecular weight gingipain R (RgpB)", "test": "SEC"}}}
{"binder": "PD_(RgpA), recombinant N-terminal prodomain of RgpA (domain or fragment) QQTELGRNPNVRLLESTQQSVTKVQFRMDNLKFTEVQTPKGMAQVPTYTEGVNLSEKGMPTLPILSRSLAVSDTREMKVEVVSSKFIEKKNVLIAPSKGMIMRNEDPKKIPYVYGKSYSQNKFFPGEIATLDDPFILRDVRGQVVNFAPLQYNPVTKTLRIYTEITVAVSETSEQGKNILNKKGTFAGFEDTYKRMFMNYEPGR", "values": [{"measurement": "Ki", "setting": "[1]", "value": 2.1, "unit": "nM"}, {"measurement": "IC50 of inhibition of amidolytic activity (L-BAPNA), 10 nM enzyme", "setting": "[2]", "value": 15.7, "unit": "nM"}, {"measurement": "IC50 of inhibition of aminopeptidase activity (H-Arg-AMC), 10 nM enzyme", "setting": "[2]", "value": 6.9, "unit": "nM"}, {"measurement": "IC50 of inhibition of proteolytic activity (Azocoll), 10 nM enzyme", "setting": "[2]", "value": 7.3, "unit": "nM"}, {"measurement": "Ki", "setting": "gingipain K (Kgp)", "value": "> 5000", "unit": "nM"}, {"measurement": "koff", "setting": "[3]", "value": "1.3e-05", "unit": "s⁻¹"}, {"measurement": "kon", "setting": "[3]", "value": 6070, "unit": "M⁻¹ s⁻¹"}]}
{"binder": "PD_(RgpB), recombinant N-terminal prodomain of RgpB (domain or fragment) GPLGSQPAERGRNPQVRLLSAEQSMSKVQFRMDNLQFTGVQTSKGVAQVPTFTEGVNISEKGTPILPILSRSLAVSETRAMKVEVVSSKFIEKKDVLIAPSKGVISRAENPDQIPYVYGQSYNEDKFFPGEIATLSDPFILRDVRGQVVNFAPLQYNPVTKTLRIYTEIVVAVSETAEAGQNTISLVKNSTFTGFEDIYKSVFMNYEATR", "values": [{"measurement": "IC50 of inhibition of Rgp activity (L-BAPNA): mt-RgpB (purified)", "setting": "[4]", "value": 188, "unit": "nM"}, {"measurement": "IC50 of inhibition of Rgp activity (L-BAPNA): RgpB (purified non-glycosylated)", "setting": "[5]", "value": 15, "unit": "nM"}, {"measurement": "stoichiometry N", "setting": "[6]", "value": 1}, {"measurement": "Ki", "setting": "[1]", "value": 6.2, "unit": "nM"}, {"measurement": "IC50 of inhibition of amidolytic activity (L-BAPNA), 10 nM enzyme", "setting": "[2]", "value": 23.7, "unit": "nM"}, {"measurement": "IC50 of inhibition of aminopeptidase activity (H-Arg-AMC), 10 nM enzyme", "setting": "[2]", "value": 7.2, "unit": "nM"}, {"measurement": "IC50 of inhibition of proteolytic activity (Azocoll), 10 nM enzyme", "setting": "[2]", "value": 7.1, "unit": "nM"}, {"measurement": "Ki", "setting": "gingipain K (Kgp)", "value": "> 5000", "unit": "nM"}, {"measurement": "koff", "setting": "[3]", "value": "3.1e-05", "unit": "s⁻¹"}, {"measurement": "kon", "setting": "[3]", "value": 5020, "unit": "M⁻¹ s⁻¹"}]}
